B1: control h1F6 antibody (humanized IgG1 anti-CD70 monoclonal antibody, from CHO DG44 cells cultured without fucose analog; core fucosylated) (antibody, INN chains, looked up, V domains shown)
VH: QVQLVQSGAEVKKPGASVKVSCKASGYTFTNYGMNWVRQAPGQGLKWMGWINTYTGEPTYADAFKGRVTMTRDTSISTAYMELSRLRSDDTAVYYCARDYGDYGMDYWGQGTTVTVSS
VL: DIVMTQSPDSLAVSLGERATINCRASKSVSTSGYSFMHWYQQKPGQPPKLLIYLASNLESGVPDRFSGSGSGTDFTLTISSLQAEDVAVYYCQHSREVPWTFGQGTKVEIK
B2: h1F6 antibody from host cells cultured in the presence of 50 µM alkynyl fucose peracetate (non-core fucosylated anti-CD70 antibody) (antibody, INN chains, looked up, V domains shown)
VH: B1 VH
VL: B1 VL
modifications: non-core fucosylated (alkynyl fucose)
B3: h1F6 antibody from host cells cultured in the presence of 100 µM alkynyl fucose peracetate (antibody, INN chains, looked up, IgG1, V domains shown)
VH: B1 VH
VL: B1 VL
modifications: produced with 100 µM alkynyl fucose

Each binder was assayed against T1, CD70 (on CD70+ 786-O target cells) (UniProt P32970) (assay: cell-based or functional assay).
T1 sequence (looked up): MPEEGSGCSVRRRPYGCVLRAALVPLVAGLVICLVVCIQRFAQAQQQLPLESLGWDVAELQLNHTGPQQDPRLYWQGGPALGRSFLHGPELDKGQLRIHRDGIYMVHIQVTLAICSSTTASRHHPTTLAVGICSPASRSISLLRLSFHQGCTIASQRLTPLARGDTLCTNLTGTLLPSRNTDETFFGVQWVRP

**Q.** For B1, which half maximal lysis (EC50), ADCC 51Cr release assay is on record?
**A.** 9 ng/mL

**Q.** What about the maximal specific lysis of the same binder?
**A.** 42.5 percent

**Q.** How did the half maximal lysis (EC50), ADCC 51Cr release assay turn out when B2 was run?
**A.** 0.5 ng/mL

**Q.** And the maximal specific lysis?
**A.** 53.3 percent

**Q.** For B3, which half maximal lysis (EC50), ADCC 51Cr release assay is on record?
**A.** 0.3 ng/mL

**Q.** And the maximal specific lysis?
**A.** 54.8 percent
